Values of other authors as cited in publication PMC6933782 (ACS Omega, 2019).

Conditions: ref 26 (Jagoda et al., 2015)

Substance: ^18F-labeled RSA: ^18F-labeled rat serum albumin (RSA), literature, ref 26
- retention of uptake in the heart and peripheral vasculature (PET, up to stated time postinjection): up to 2.5 h
- uptake in PET: uptake in the heart and peripheral vasculature
